Measured values reported in patent US20180009871A1 (INTARCIA THERAPEUTICS, published 2018).
Where no end group is shown, it is not given here. [ ]: non-standard residue; d: D form. Aib = CC(C)(N)C(=O)O

B1: Compound A85 (peptide)
peptide: YSHGTFTSDYSKYLD[Aib]KRAQEFV[Aib]WLEDEPSSGKPPPS-NH2
modifications: N-terminus assumed
SMILES: CC(C)C[C@H](NC(=O)[C@H](Cc1ccc(O)cc1)NC(=O)[C@H](CCCCN)NC(=O)[C@H](CO)NC(=O)[C@H](Cc1ccc(O)cc1)NC(=O)[C@H](CC(=O)O)NC(=O)[C@H](CO)NC(=O)[C@@H](NC(=O)[C@H](Cc1ccccc1)NC(=O)[C@@H](NC(=O)CNC(=O)[C@H](Cc1c[nH]cn1)NC(=O)[C@H](CO)NC(=O)[C@@H](N)Cc1ccc(O)cc1)[C@@H](C)O)[C@@H](C)O)C(=O)N[C@@H](CC(=O)O)C(=O)NC(C)(C)C(=O)N[C@@H](CCCCN)C(=O)N[C@@H](CCCNC(=N)N)C(=O)N[C@@H](C)C(=O)N[C@@H](CCC(N)=O)C(=O)N[C@@H](CCC(=O)O)C(=O)N[C@@H](Cc1ccccc1)C(=O)N[C@H](C(=O)NC(C)(C)C(=O)N[C@@H](Cc1c[nH]c2ccccc12)C(=O)N[C@@H](CC(C)C)C(=O)N[C@@H](CCC(=O)O)C(=O)N[C@@H](CC(=O)O)C(=O)N[C@@H](CCC(=O)O)C(=O)N1CCC[C@H]1C(=O)N[C@@H](CO)C(=O)N[C@@H](CO)C(=O)NCC(=O)N[C@@H](CCCCN)C(=O)N1CCC[C@H]1C(=O)N1CCC[C@H]1C(=O)N1CCC[C@H]1C(=O)N[C@@H](CO)C(N)=O)C(C)C
B2: Compound A99 (peptide)
peptide: YSHGTFTSDYSKYLD[Aib]KRAQEFV[Aib]WLEDEPSSGAPPPS-OH
modifications: N-terminus assumed
SMILES: CC(C)C[C@H](NC(=O)[C@H](Cc1ccc(O)cc1)NC(=O)[C@H](CCCCN)NC(=O)[C@H](CO)NC(=O)[C@H](Cc1ccc(O)cc1)NC(=O)[C@H](CC(=O)O)NC(=O)[C@H](CO)NC(=O)[C@@H](NC(=O)[C@H](Cc1ccccc1)NC(=O)[C@@H](NC(=O)CNC(=O)[C@H](Cc1c[nH]cn1)NC(=O)[C@H](CO)NC(=O)[C@@H](N)Cc1ccc(O)cc1)[C@@H](C)O)[C@@H](C)O)C(=O)N[C@@H](CC(=O)O)C(=O)NC(C)(C)C(=O)N[C@@H](CCCCN)C(=O)N[C@@H](CCCNC(=N)N)C(=O)N[C@@H](C)C(=O)N[C@@H](CCC(N)=O)C(=O)N[C@@H](CCC(=O)O)C(=O)N[C@@H](Cc1ccccc1)C(=O)N[C@H](C(=O)NC(C)(C)C(=O)N[C@@H](Cc1c[nH]c2ccccc12)C(=O)N[C@@H](CC(C)C)C(=O)N[C@@H](CCC(=O)O)C(=O)N[C@@H](CC(=O)O)C(=O)N[C@@H](CCC(=O)O)C(=O)N1CCC[C@H]1C(=O)N[C@@H](CO)C(=O)N[C@@H](CO)C(=O)NCC(=O)N[C@@H](C)C(=O)N1CCC[C@H]1C(=O)N1CCC[C@H]1C(=O)N1CCC[C@H]1C(=O)N[C@@H](CO)C(=O)O)C(C)C
B3: Compound A100 (peptide)
peptide: YSHGTFTSDYSKYLD[Aib]KRAQEFV[Aib]WLEDE-OH
modifications: N-terminus assumed
SMILES: CC(C)C[C@H](NC(=O)[C@H](Cc1ccc(O)cc1)NC(=O)[C@H](CCCCN)NC(=O)[C@H](CO)NC(=O)[C@H](Cc1ccc(O)cc1)NC(=O)[C@H](CC(=O)O)NC(=O)[C@H](CO)NC(=O)[C@@H](NC(=O)[C@H](Cc1ccccc1)NC(=O)[C@@H](NC(=O)CNC(=O)[C@H](Cc1c[nH]cn1)NC(=O)[C@H](CO)NC(=O)[C@@H](N)Cc1ccc(O)cc1)[C@@H](C)O)[C@@H](C)O)C(=O)N[C@@H](CC(=O)O)C(=O)NC(C)(C)C(=O)N[C@@H](CCCCN)C(=O)N[C@@H](CCCNC(=N)N)C(=O)N[C@@H](C)C(=O)N[C@@H](CCC(N)=O)C(=O)N[C@@H](CCC(=O)O)C(=O)N[C@@H](Cc1ccccc1)C(=O)N[C@H](C(=O)NC(C)(C)C(=O)N[C@@H](Cc1c[nH]c2ccccc12)C(=O)N[C@@H](CC(C)C)C(=O)N[C@@H](CCC(=O)O)C(=O)N[C@@H](CC(=O)O)C(=O)N[C@@H](CCC(=O)O)C(=O)O)C(C)C
B4: Compound A102 (peptide)
peptide: YSHGTFTSDYSKWLD[Aib]KRAQEFVKWLEDE-OH
modifications: N-terminus assumed
SMILES: CC(C)C[C@H](NC(=O)[C@H](Cc1c[nH]c2ccccc12)NC(=O)[C@H](CCCCN)NC(=O)[C@@H](NC(=O)[C@H](Cc1ccccc1)NC(=O)[C@H](CCC(=O)O)NC(=O)[C@H](CCC(N)=O)NC(=O)[C@H](C)NC(=O)[C@H](CCCNC(=N)N)NC(=O)[C@H](CCCCN)NC(=O)C(C)(C)NC(=O)[C@H](CC(=O)O)NC(=O)[C@H](CC(C)C)NC(=O)[C@H](Cc1c[nH]c2ccccc12)NC(=O)[C@H](CCCCN)NC(=O)[C@H](CO)NC(=O)[C@H](Cc1ccc(O)cc1)NC(=O)[C@H](CC(=O)O)NC(=O)[C@H](CO)NC(=O)[C@@H](NC(=O)[C@H](Cc1ccccc1)NC(=O)[C@@H](NC(=O)CNC(=O)[C@H](Cc1c[nH]cn1)NC(=O)[C@H](CO)NC(=O)[C@@H](N)Cc1ccc(O)cc1)[C@@H](C)O)[C@@H](C)O)C(C)C)C(=O)N[C@@H](CCC(=O)O)C(=O)N[C@@H](CC(=O)O)C(=O)N[C@@H](CCC(=O)O)C(=O)O
B5: Compound A103 (peptide)
peptide: YSHGTFTSDYSKYLD[Aib]ARAQEFV[Aib]WLEDEPSSGAPPPS-OH
modifications: N-terminus assumed
SMILES: CC(C)C[C@H](NC(=O)[C@H](Cc1ccc(O)cc1)NC(=O)[C@H](CCCCN)NC(=O)[C@H](CO)NC(=O)[C@H](Cc1ccc(O)cc1)NC(=O)[C@H](CC(=O)O)NC(=O)[C@H](CO)NC(=O)[C@@H](NC(=O)[C@H](Cc1ccccc1)NC(=O)[C@@H](NC(=O)CNC(=O)[C@H](Cc1c[nH]cn1)NC(=O)[C@H](CO)NC(=O)[C@@H](N)Cc1ccc(O)cc1)[C@@H](C)O)[C@@H](C)O)C(=O)N[C@@H](CC(=O)O)C(=O)NC(C)(C)C(=O)N[C@@H](C)C(=O)N[C@@H](CCCNC(=N)N)C(=O)N[C@@H](C)C(=O)N[C@@H](CCC(N)=O)C(=O)N[C@@H](CCC(=O)O)C(=O)N[C@@H](Cc1ccccc1)C(=O)N[C@H](C(=O)NC(C)(C)C(=O)N[C@@H](Cc1c[nH]c2ccccc12)C(=O)N[C@@H](CC(C)C)C(=O)N[C@@H](CCC(=O)O)C(=O)N[C@@H](CC(=O)O)C(=O)N[C@@H](CCC(=O)O)C(=O)N1CCC[C@H]1C(=O)N[C@@H](CO)C(=O)N[C@@H](CO)C(=O)NCC(=O)N[C@@H](C)C(=O)N1CCC[C@H]1C(=O)N1CCC[C@H]1C(=O)N1CCC[C@H]1C(=O)N[C@@H](CO)C(=O)O)C(C)C
B6: Compound A101 (peptide)
peptide: YGHGTFTSDHSKYLD[Aib]KRAQEFVKWLEDE-OH
modifications: N-terminus assumed
SMILES: CC(C)C[C@H](NC(=O)[C@H](Cc1c[nH]c2ccccc12)NC(=O)[C@H](CCCCN)NC(=O)[C@@H](NC(=O)[C@H](Cc1ccccc1)NC(=O)[C@H](CCC(=O)O)NC(=O)[C@H](CCC(N)=O)NC(=O)[C@H](C)NC(=O)[C@H](CCCNC(=N)N)NC(=O)[C@H](CCCCN)NC(=O)C(C)(C)NC(=O)[C@H](CC(=O)O)NC(=O)[C@H](CC(C)C)NC(=O)[C@H](Cc1ccc(O)cc1)NC(=O)[C@H](CCCCN)NC(=O)[C@H](CO)NC(=O)[C@H](Cc1c[nH]cn1)NC(=O)[C@H](CC(=O)O)NC(=O)[C@H](CO)NC(=O)[C@@H](NC(=O)[C@H](Cc1ccccc1)NC(=O)[C@@H](NC(=O)CNC(=O)[C@H](Cc1c[nH]cn1)NC(=O)CNC(=O)[C@@H](N)Cc1ccc(O)cc1)[C@@H](C)O)[C@@H](C)O)C(C)C)C(=O)N[C@@H](CCC(=O)O)C(=O)N[C@@H](CC(=O)O)C(=O)N[C@@H](CCC(=O)O)C(=O)O

biological target: human glucagon receptor (GCGR) (human, UniProt P47871 26-477); assay: cell-based or functional assay

Binder | hGCGR pEC50 (cAMP) [pEC50]
YSHGTFTSDYSKYLD[Aib]KRAQEFV[Aib]WLEDEPSSGKKPPS [Compound A88] | 13.8
YSHGTFTSDYSKYLD[Aib]KAAQEFV[Aib]WLEDEPSSGKPPPS [Compound A90] | 13.1
B1 | 13.6
YSHGTFTSDYSKYLD[Aib]KRAQEFV[Aib]HLEDEPSSGKPPPS [Compound A89] | 12.7
YSHGTFTSDYSKYLDAARAQEFVKWLEDEPKSKSPPPS-NH2 [Compound A80] | 12.5
YSQGTFTSDYSKYLD[Aib]KRAQEFV[Aib]WLEDEPSSGKPPPS [Compound A86] | 13.3
WSQGTFTSDYSKYLD[Aib]KAAQEFV[Aib]WLEDEPSSGAPPPS [Compound A92] | 10.7
WSQGTFTSDYSKYLD[Aib]KAAQEFV[Aib]WLEDEPSSGKPPPS [Compound A93] | 10.9
YSQGTFTSDYSKYLDSARAQEFVKWLEDEPKSKSPPPS [Compound A81] | 11
YSHGTFTSDYSKYLDSARAQEFTKWLEDEPKSKSPPPS [Compound A83] | 10.2
YSQGTFTSDYSKYLDSARAQEFVKWLEDEPKSKAPPPS [Compound A82] | 11
YSHGTFTSDYSKYLDSARAQEFVKHLEDEPKSKSPPPS [Compound A84] | 9.4
WSQGTFTSDYSKYLD[Aib]KRAQEFV[Aib]WLEDEPSSGKPPPS [Compound A91] | 12.8
YSHGTFTSDYSKYLD[Aib]KRAQEFV[Aib]WLEDEKSSGKPPPS [Compound A87] | 13.6

biological target: human GLP-1 receptor (GLP-1R) (human, UniProt P43220 24-463); assay: cell-based or functional assay
Sequence (P43220 24-463): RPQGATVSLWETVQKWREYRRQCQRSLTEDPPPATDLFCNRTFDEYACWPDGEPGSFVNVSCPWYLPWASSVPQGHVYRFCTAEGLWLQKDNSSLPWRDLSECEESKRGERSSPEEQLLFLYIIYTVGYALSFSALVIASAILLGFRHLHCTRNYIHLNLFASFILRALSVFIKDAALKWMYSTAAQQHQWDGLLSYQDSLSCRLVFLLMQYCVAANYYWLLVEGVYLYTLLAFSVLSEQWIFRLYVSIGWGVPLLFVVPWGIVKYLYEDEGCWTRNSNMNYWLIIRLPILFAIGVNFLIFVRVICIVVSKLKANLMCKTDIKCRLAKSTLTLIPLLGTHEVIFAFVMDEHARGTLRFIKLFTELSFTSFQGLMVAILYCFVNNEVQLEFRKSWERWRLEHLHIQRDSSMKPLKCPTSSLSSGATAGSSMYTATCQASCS

Binder | hGLP1 pEC50 (cAMP) [pEC50]
B2 | < 9
B3 | < 9
YSHGTFTSDYSKYLD[Aib]KRAQEFV[Aib]WLEDEPSSGKKPPS [Compound A88] | < 9
YSHGTFTSDYSKYLD[Aib]KAAQEFV[Aib]WLEDEPSSGKPPPS [Compound A90] | < 9
B1 | < 9
YSHGTFTSDYSKYLD[Aib]KRAQEFV[Aib]HLEDEPSSGKPPPS [Compound A89] | < 9
YSHGTFTSDYSKYLDAARAQEFVKWLEDEPKSKSPPPS-NH2 [Compound A80] | < 9
B4 | < 9
B5 | < 9
YSQGTFTSDYSKYLD[Aib]KRAQEFV[Aib]WLEDEPSSGKPPPS [Compound A86] | < 9
WSQGTFTSDYSKYLD[Aib]KAAQEFV[Aib]WLEDEPSSGAPPPS [Compound A92] | < 9
WSQGTFTSDYSKYLD[Aib]KAAQEFV[Aib]WLEDEPSSGKPPPS [Compound A93] | < 9
YSQGTFTSDYSKYLDSARAQEFVKWLEDEPKSKSPPPS [Compound A81] | < 9
YSHGTFTSDYSKYLDSARAQEFTKWLEDEPKSKSPPPS [Compound A83] | < 9
YSQGTFTSDYSKYLDSARAQEFVKWLEDEPKSKAPPPS [Compound A82] | < 9
YSHGTFTSDYSKYLDSARAQEFVKHLEDEPKSKSPPPS [Compound A84] | < 9
WSQGTFTSDYSKYLD[Aib]KRAQEFV[Aib]WLEDEPSSGKPPPS [Compound A91] | < 9
B6 | < 9
YSHGTFTSDYSKYLD[Aib]KRAQEFV[Aib]WLEDEKSSGKPPPS [Compound A87] | < 9
